# Test results: paper PMC3383883 (ACS Nano, 2012)
# B1: anti-OPN 23C3 scFv (scFv, V domains shown)
# VH: EVQLVESGGGLVQPKGSLKISCAASGFTFNIYAMNWVRQAPGKGLEWVARIRSQSNNYTTYYADSVKDRFTISRDDSQSMLYLQMNNLKTEDTAMYYCVRQMGDYWGQGTTLTVSS
# VL: YIQMTQSPASLSVSVGETVTITCRASENIYSFLAWYQQKQGKSPQLLVYAATNLADGVPSRFSGSGSGTQFSLKINSLQSEDFGTYYCQHFWGTPFTFGSGTKLEIK
# Target: bovine serum albumin (Bos taurus, UniProt P02769)
# Test: carbon nanotube field-effect transistor
# bovine serum albumin, sequence (P02769 25-607): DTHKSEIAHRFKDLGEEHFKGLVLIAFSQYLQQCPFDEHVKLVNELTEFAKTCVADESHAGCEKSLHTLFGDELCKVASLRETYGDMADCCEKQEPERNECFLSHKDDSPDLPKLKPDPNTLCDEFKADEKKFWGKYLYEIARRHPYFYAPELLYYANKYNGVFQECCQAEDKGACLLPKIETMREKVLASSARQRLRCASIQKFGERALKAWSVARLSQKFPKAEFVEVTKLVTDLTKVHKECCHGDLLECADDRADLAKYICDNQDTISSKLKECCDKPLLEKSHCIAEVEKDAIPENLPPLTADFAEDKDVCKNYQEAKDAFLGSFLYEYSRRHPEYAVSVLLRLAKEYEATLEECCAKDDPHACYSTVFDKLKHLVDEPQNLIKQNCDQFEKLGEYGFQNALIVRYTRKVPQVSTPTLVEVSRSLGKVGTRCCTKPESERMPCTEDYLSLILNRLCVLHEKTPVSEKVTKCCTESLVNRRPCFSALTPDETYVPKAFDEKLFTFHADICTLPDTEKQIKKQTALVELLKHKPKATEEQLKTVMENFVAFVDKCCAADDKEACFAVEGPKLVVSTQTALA
binder,measurement,value
B1,binding result,no binding (tested: 450 ng/mL)
